# Results: patent US20250027068A1
# Target: pooled human IgG (human)
# Assay: cell-based or functional assay
Binder,"Enzyme Activity Endpoint Assay, Fab′2 [ng/µL]","Enzyme Activity Endpoint Assay, Fc [ng/µL]","Enzyme Activity Endpoint Assay, IgG [ng/µL]","Enzyme Activity Endpoint Assay, scIgG [ng/µL]",Enzyme Activity Endpoint Assay: Fab′2 [ng/µL],Enzyme Activity Endpoint Assay: Fc [ng/µL],Enzyme Activity Endpoint Assay: IgG [ng/µL],Enzyme Activity Endpoint Assay: scIgG [ng/µL]
VRT-43 (Fc fusion) QITSVWTKGVTPPTPEQFRYYNEDVFHAPYTAHQGWYDITKTFDGKDNLLCGAATAGNMLHWWFDQNKTEIEAYLSKHPEKQKIIFKNQELFDLKAAIDTKDSQTNSALFNYFRDKAFPGLSARQLGVFPDLVLDMFINGYYLNVFKTQSTDVNRPYQDKDKRGGIFDAVFTRGVQTTLLTARHDLKNKTLNDISTIIKQELTEGRALALSHTYANVRISHVINLWGADFNAEGNLEAIYVTDSDSRASIGMKKYFVGVNASGKVAISAKKIEGENIGAQVLGLFTLSSGKDIWQKLSDKTHTCPPCPAPEAAGAPSVFLFPPKPKDTLMISRTPEVTCVVVDVSHEDPEVKFNWYVDGVEVHNAKTKPREEQQNSTYRVVSVLTVLHQDWLNGKEYKCKVSNKALKAPIEKTISKAKGQPREPQVYTLPPSRDELTKNQVSLTCLVKGFYPSDIAVEWESNGQPENNYKTTPPVLDSDGSFFLYSKLTVDKSRWQQGNVFSCSVMHEALHNHYTQKSLSLSPG,0,28,1010,23,,,,
VRT-37 (Fc fusion) VTSVWTKGVTPPTNFTYGEDVLHAPYVANQGWYDITKTFNRKDNLLCGAATAGNMLHWWFDQNKEQIENYLKKHPEKQKINFKGEQLFDVKEAIDTKDSQLDSKLFEYFKEKAFPYLSTKHLGVFPDHVIDMFINGYRLSLTNHGPTPVKRGSKDKRGGIFDAVFTRGVQSKLLTNRHDFKEKTLKEISDLIKQELTEGKALGISHTYANVRINHVINLWGADFDAEGNLEAIYVTDSDTEASIGMKKYFVGVNKNGKVAISAKEIEEDNIGAQVLGLFTLSTGQDIWNQTNDKTHTCPPCPAPEAAGAPSVFLFPPKPKDTLMISRTPEVTCVVVDVSHEDPEVKFNWYVDGVEVHNAKTKPREEQQNSTYRVVSVLTVLHQDWLNGKEYKCKVSNKALKAPIEKTISKAKGQPREPQVYTLPPSRDELTKNQVSLTCLVKGFYPSDIAVEWESNGQPENNYKTTPPVLDSDGSFFLYSKLTVDKSRWQQGNVFSCSVMHEALHNHYTQKSLSLSPG,,,,,0,101,854,38
VRT-40 (Fc fusion) TITSVWTKGVTPPTPEDFRYYNEDVLHAPYVANQGWYDITKTFDGKDNLLCGAATAGNMLHWWFDQNKEEIERYLKKHPEKQKIIFKNQELFDVKAAIDTKDSQTNSKLFNYFRDKAFPGLSARQLGVFPDLVLDMFINGYYLNLGKTQSTDVNRPYQDKDKRGGIFDAVFTRGVQTTLLTARHDLKNKGLNEISDLIKQELTEGKALALSHTYANVRINHVINLWGADFDAEGNLIAIYVTDSDTRASIGMKKYFVGVNANGKVAISAKKIEGDNIGAQVLGLFTLSTGQDIWQKLSDKTHTCPPCPAPEAAGAPSVFLFPPKPKDTLMISRTPEVTCVVVDVSHEDPEVKFNWYVDGVEVHNAKTKPREEQQNSTYRVVSVLTVLHQDWLNGKEYKCKVSNKALKAPIEKTISKAKGQPREPQVYTLPPSRDELTKNQVSLTCLVKGFYPSDIAVEWESNGQPENNYKTTPPVLDSDGSFFLYSKLTVDKSRWQQGNVFSCSVMHEALHNHYTQKSLSLSPG,,,,,63,243,167,222
VRT-47 (Fc fusion) VTSVWTKGVTPPTDFIYGEDVLHAPYKAGQGWYDITKTFNGKDDLLCGAATAGNMLHWWFDQNKEQIENYLKKHPEKQKINFNGEQMFDVKEAIDTKDSQLDSKLFEYFKEKAFPYLSTKHLGVFPDHVIDMFINGYRLSLTNHGPTPVKRGSKDPRGGIFDAVFTRGDQSKLLTNRHDLKNKTLKEISDLIKQELTEGKALGISHTYANVRINHVINLWGADFDAEGNLEAIYVTDSDSNASIGMKKYFVGVNSNGKVAISAKEIEEDNIGAQVLGLFTLSTGQDIWNQTNDKTHTCPPCPAPEAAGAPSVFLFPPKPKDTLMISRTPEVTCVVVDVSHEDPEVKFNWYVDGVEVHNAKTKPREEQQNSTYRVVSVLTVLHQDWLNGKEYKCKVSNKALKAPIEKTISKAKGQPREPQVYTLPPSRDELTKNQVSLTCLVKGFYPSDIAVEWESNGQPENNYKTTPPVLDSDGSFFLYSKLTVDKSRWQQGNVFSCSVMHEALHNHYTQKSLSLSPG,168,317,253,156,,,,
VRT-36 (Fc fusion) VTSVWTKGVTPPANFTQGEDVFHAPYVANQGWYDITKTFNRKDNLLCGAATAGNMLHWWFDQNKDQIERYLKEHPEKQKINFKGEQLFDVKEAIDTKDSQTDSKLFEYFKEKAFPYLSTKHLGVFPDHVLDMFINGYRLSLTNHGPTPVKEGSKDKRGGIFDAVFTRGVQSKLLTSRHDFKEKTLKEISDLIKQELTEGKALGLSHTYANVRINHVINLWGADFDSEGNLKAIYVTDSDTEASIGMKKYFVGVNKAGKVAISAKEIKEDNIGAQVLGLFTLSTGQDIWNQTNDKTHTCPPCPAPEAAGAPSVFLFPPKPKDTLMISRTPEVTCVVVDVSHEDPEVKFNWYVDGVEVHNAKTKPREEQQNSTYRVVSVLTVLHQDWLNGKEYKCKVSNKALKAPIEKTISKAKGQPREPQVYTLPPSRDELTKNQVSLTCLVKGFYPSDIAVEWESNGQPENNYKTTPPVLDSDGSFFLYSKLTVDKSRWQQGNVFSCSVMHEALHNHYTQKSLSLSPG,,,,,0,112,1030,62
VRT-42 (Fc fusion) QITSVWTKGVTPLTPEQFRYYNEDVIHAPYLANQGWYDITKTFNGKDNLLCGAATAGNMLHWWFDQNKTEIEAYLKKHPEKQKIIFKNQELFDLKAAIDTKDSQTNSQLFNYFRDKAFPGLSARQLGVFPDLVLDMFINGYYLNVFKTQSTDVNRPYQDKDKRGGIFDAVFTRGVQTTLLTARHDLKNKGLNEISTLIKQELTEGKALALSHTYANVRISHVINLWGADFNAEGNLEAIYVTDSDSRASIGMKKYFVGVNAHGKVAISAKKIEGENIGAQVLGLFTLSSGKDIWQKLSDKTHTCPPCPAPEAAGAPSVFLFPPKPKDTLMISRTPEVTCVVVDVSHEDPEVKFNWYVDGVEVHNAKTKPREEQQNSTYRVVSVLTVLHQDWLNGKEYKCKVSNKALKAPIEKTISKAKGQPREPQVYTLPPSRDELTKNQVSLTCLVKGFYPSDIAVEWESNGQPENNYKTTPPVLDSDGSFFLYSKLTVDKSRWQQGNVFSCSVMHEALHNHYTQKSLSLSPG,0,28,985,20,,,,
VRT-44 (Fc fusion) SQTEDSESLQRLRDIEDFQAEKKKQNVVYTKWLDGVDVKDHDFRKIVDGNIAYYATPLLNGRGFYDINKDFNRDNDKCAAAVAANMFHYWLDRNRDNVDRFLRQNPEKHGIIELPDEQLKLSDFLNTYESDDGYRDKSKLFDFISNNFNKPVWTDKLLDNYINGYAYNYKYGRTIEDSTKNTSKINFFKEVFNEKILTNIHSIRNQNEFSVLLSEALYTGKAIGLSYGPAGLRHSLGHIISVWGADLDADGNVVAIYVTDSDDKKLTIGDERVGLKRYKISTDDEGRLRLTAYEETHNTGGQIRGLWTLDTGKQAWADYFDKTEQTGTDQAEQDKTHTCPPCPAPEAAGAPSVFLFPPKPKDTLMISRTPEVTCVVVDVSHEDPEVKFNWYVDGVEVHNAKTKPREEQQNSTYRVVSVLTVLHQDWLNGKEYKCKVSNKALKAPIEKTISKAKGQPREPQVYTLPPSRDELTKNQVSLTCLVKGFYPSDIAVEWESNGQPENNYKTTPPVLDSDGSFFLYSKLTVDKSRWQQGNVFSCSVMHEALHNHYTQKSLSLSPG,0,28,1070,21,,,,
VRT-48 (Fc fusion) VTSVWTKGVTPPTDFRKIVDGNIAYYHAPYKAGQGWYDITKAFDGGDDLLCGAATAGNMLHWWFDQNKEQIENYLKKHPEKQKINFNGEQMFDVKEAIDTKDSQTNSELFNYFKEKAFPYLSTKHLGVFPDHVIDMFINGYRLSLTNHGPTPVKRGSKDPRGGIFDAVFTRGDQSKLLTNRHDLKNKTLKEISDLIKQELTEGKALGISHTYANVRINHVINLWGADFDAEGNLEAIYVTDSDSNASIGMKKYFVGVNSNGKVAISAKEIEEDNIGAQVLGLFTLSTGQDIWNQTNDKTHTCPPCPAPEAAGAPSVFLFPPKPKDTLMISRTPEVTCVVVDVSHEDPEVKFNWYVDGVEVHNAKTKPREEQQNSTYRVVSVLTVLHQDWLNGKEYKCKVSNKALKAPIEKTISKAKGQPREPQVYTLPPSRDELTKNQVSLTCLVKGFYPSDIAVEWESNGQPENNYKTTPPVLDSDGSFFLYSKLTVDKSRWQQGNVFSCSVMHEALHNHYTQKSLSLSPG,9,222,134,258,,,,
VRT-38 (Fc fusion) VTSVWTKGVTPPADFTQGEDVFHAPYVANQGWYDITKTFNRKDNLLCGAATAGNMLHWWFDQNKEYIEAYLKKHPEKQKIIFGDQELLDVRKAINTKGSQKNSELFNYFRDKAFPNLSARRLGVFPDLVLDMFINGYYLNVTKTQTTDVNRTYQEKDKRGGIFDAVFTRGVQSKLLTSRHDFKEKGLKEISDLIKQELTEGKALGLSHTYANVRINHVINLWGADFDSDGNLKAIYVTDSDTRASIGMKKYFVGVNAAGKVAISAKEIKEDNIGAQVLGLFTLSTGQDIWNQTNDKTHTCPPCPAPEAAGAPSVFLFPPKPKDTLMISRTPEVTCVVVDVSHEDPEVKFNWYVDGVEVHNAKTKPREEQQNSTYRVVSVLTVLHQDWLNGKEYKCKVSNKALKAPIEKTISKAKGQPREPQVYTLPPSRDELTKNQVSLTCLVKGFYPSDIAVEWESNGQPENNYKTTPPVLDSDGSFFLYSKLTVDKSRWQQGNVFSCSVMHEALHNHYTQKSLSLSPG,,,,,0,27,990,20
VRT-39 (Fc fusion) ITSVWTKGVTPPAKFTQGEDVFHAPYVANQGWYDITKTFNRKDNLLCGAATAGNMLHWWFDQNKEEIEAYLKKHPEKQKIIFGDQELLDVRKVINTKDSQTNSALFNYFKDKAFPNLSARRLGVFPDLVLDMFINGYYLNVYKTQTTDVNRTYQTKDRRGGIFDAVFTRGVQSKLLTERHDFKEKTLKEISDLIKQELTEGKALGLSHTYANVRINHVINLWGADFDSNGNLEAIYVTDSDTRASIGMKKYFVGVNAAGKVAISAKEIKEDNIGAQVLGLFTLSTGQDIWNQTNDKTHTCPPCPAPEAAGAPSVFLFPPKPKDTLMISRTPEVTCVVVDVSHEDPEVKFNWYVDGVEVHNAKTKPREEQQNSTYRVVSVLTVLHQDWLNGKEYKCKVSNKALKAPIEKTISKAKGQPREPQVYTLPPSRDELTKNQVSLTCLVKGFYPSDIAVEWESNGQPENNYKTTPPVLDSDGSFFLYSKLTVDKSRWQQGNVFSCSVMHEALHNHYTQKSLSLSPG,,,,,0,27,1020,22
